Results as given in the supplement of paper PMC7877785.
± gives the uncertainty stated by the source.

Assay: self-splicing fitness, log relative to wild type (ln ratio); higher = more splicing; Tetrahymena group I intron in knt gene, E. coli kanamycin selection, DiMSum; sequences stand for … in CUCUCU…GGAGGGAAAAGUUAUCAGGCAUGCACCUGGUAGCUAGUCUUUAAACCAAUAGAUUGCAUCGGUUUAAAAGGCAAGACCGUCAAAUUGCGGGAAAGGGGUCAACAGCCGUUCAGUACCAAGUCUCAGGGGAAACUUUGAGAUGGCCUUGCAAAGGGUAUGGUAAUAAGCUGACGGACAUGGUCCUAACCACGCAGCCAAGUCCUAAGUCAACAGAUCUUCUGUUGAUAUGGAUGCAGUUCACAGACUAAAUGUCGGUCGGGGAAGAUGUAUUCUUCUCAUAAGAUAUAGUCGGACCUCUCCUUAAUGGGAGCUAGCGGAUGAAGUGAUGCAACACUGGAGCCGCUGGGAACUAAUUUGUAUGCGAAAGUAUAUUGAUUAGUUUUGGAGUACUCGUGGUCG
In short: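 Colonies from six replicate transformations of E. coli BL21(DE3) were pooled and amplicon-sequenced on an Illumina HiSeq 2500. The library placed an intron with all eight P1ex-region nucleotides randomised inside the knt kanamycin-resistance gene on pET-22b(+), and cells grew overnight at 37°C or 30°C on LB agar with or without 25 μg/mL kanamycin (plus 100 μg/mL carbenicillin, 50 μM IPTG, 0.2% rhamnose). Fitness is the DiMSum error-weighted combination of wild-type-normalised replicate fold changes, kanamycin versus none.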

| Sequence | self-splicing fitness (ln) (30 °C) | self-splicing fitness (ln) (37 °C) |
| --- | --- | --- |
| UACUAGCAAUAUUACGCGUA | -2.63 ± 0.22 | -2.33 ± 0.23 |
| UACUAGCAAUAUUACGCUAC | – | -2.01 ± 0.34 |
| UACUAGCAAUAUUACGCUAG | -3.86 ± 0.25 | -2.08 ± 0.21 |
| UACUAGCAAUAUUACGCUCU | -0.792 ± 0.085 | -0.262 ± 0.1 |
| UACUAGCAAUAUUACGGAUC | -2.66 ± 0.19 | -1.7 ± 0.24 |
| UACUAGCAAUAUUACGGAUG | -0.926 ± 0.077 | -0.112 ± 0.11 |
| UACUAGCAAUAUUACGGCCU | -1.25 ± 0.095 | -0.333 ± 0.11 |
| UACUAGCAAUAUUACGGCGC | -1.6 ± 0.28 | -1.55 ± 0.31 |
| UACUAGCAAUAUUACGGGUA | -2.08 ± 0.14 | -1.84 ± 0.13 |
| UACUAGCAAUAUUACGGUAU | -2.78 ± 0.33 | -2.63 ± 0.36 |
| UACUAGCAAUAUUACGGUCC | -1.59 ± 0.14 | -0.676 ± 0.16 |
| UACUAGCAAUAUUACGUAUU | -4.56 ± 0.29 | -2.24 ± 0.15 |
| UACUAGCAAUAUUACGUCCA | -0.715 ± 0.1 | -0.49 ± 0.13 |
| UACUAGCAAUAUUACGUGUA | -3.12 ± 0.28 | -0.943 ± 0.14 |
| UACUAGCAAUAUUACGUUAU | -3.58 ± 0.18 | -1.45 ± 0.14 |
| UAGAAGCAAUAUUACGACCU | 0.0379 ± 0.17 | -1.35 ± 0.14 |
| UAGAAGCAAUAUUACGACGG | -0.626 ± 0.095 | 0.0889 ± 0.14 |
| UAGAAGCAAUAUUACGCCAA | -1.44 ± 0.29 | -1.39 ± 0.28 |
| UAGAAGCAAUAUUACGCCGU | -2.41 ± 0.23 | -2.68 ± 0.36 |
| UAGAAGCAAUAUUACGCGAC | -3.67 ± 0.32 | -2.08 ± 0.33 |
| UAGAAGCAAUAUUACGCGAG | -0.342 ± 0.12 | -0.636 ± 0.12 |
| UAGAAGCAAUAUUACGCUAG | -1.18 ± 0.13 | -0.412 ± 0.16 |
| UAGAAGCAAUAUUACGGAAU | -2.11 ± 0.18 | -2.38 ± 0.36 |
| UAGAAGCAAUAUUACGGACU | -1.29 ± 0.13 | 0.474 ± 0.11 |
| UAGAAGCAAUAUUACGGAGG | -3.39 ± 0.3 | -0.889 ± 0.27 |
| UAGAAGCAAUAUUACGGCUU | -3.59 ± 0.48 | -1.67 ± 0.23 |

| Sequence | self-splicing fitness (ln) (30 °C) | self-splicing fitness (ln) (37 °C) |
| --- | --- | --- |
| UAGAAGCAAUAUUACGGGCU | -3.1 ± 0.23 | -3.1 ± 0.26 |
| UAGAAGCAAUAUUACGUACG | -0.237 ± 0.1 | -0.721 ± 0.13 |
| UAGAAGCAAUAUUACGUAGG | -1.78 ± 0.093 | -1.61 ± 0.16 |
| UAGAAGCAAUAUUACGUAGU | -3.71 ± 0.25 | -2.01 ± 0.22 |
| UAGAAGCAAUAUUACGUAUU | -2.3 ± 0.087 | -2.22 ± 0.12 |
| UAGAAGCAAUAUUACGUGUU | -3.84 ± 0.14 | -2.42 ± 0.11 |
| UAGAAGCAAUAUUACGUUAG | -2.51 ± 0.1 | -0.338 ± 0.093 |
| UAGAAGCAAUAUUACGUUAU | -3.81 ± 0.14 | -2.76 ± 0.12 |
| UAGAAGCAAUAUUACGUUCA | -0.483 ± 0.063 | 0.196 ± 0.082 |
| UAGCAGCAAUAUUACGACAU | -1.604 ± 0.013 | -0.682 ± 0.033 |
| UAGCAGCAAUAUUACGACCA | -0.457 ± 0.12 | 0.838 ± 0.17 |
| UAGCAGCAAUAUUACGACUA | 0.282 ± 0.1 | 0.568 ± 0.13 |
| UAGCAGCAAUAUUACGAGAA | -2.19 ± 0.23 | -0.949 ± 0.18 |
| UAGCAGCAAUAUUACGAGGA | -3.39 ± 0.17 | -2.06 ± 0.13 |
| UAGCAGCAAUAUUACGAGGC | – | -3.43 ± 0.31 |
| UAGCAGCAAUAUUACGCAGC | -2.6 ± 0.22 | -1.75 ± 0.19 |
| UAGCAGCAAUAUUACGCCGU | -2.13 ± 0.13 | -1.24 ± 0.15 |
| UAGCAGCAAUAUUACGCCUU | -0.751 ± 0.078 | -0.21 ± 0.13 |
| UAGCAGCAAUAUUACGCUAC | -2.76 ± 0.32 | -2.13 ± 0.44 |
| UAGCAGCAAUAUUACGCUAG | -2.94 ± 0.12 | -1.96 ± 0.17 |
| UAGCAGCAAUAUUACGCUUU | -1.18 ± 0.12 | -0.753 ± 0.16 |
| UAGCAGCAAUAUUACGGAGG | -3.29 ± 0.15 | -2.6 ± 0.22 |
| UAGCAGCAAUAUUACGGAUC | -3.34 ± 0.21 | -1.4 ± 0.2 |
| UAGCAGCAAUAUUACGGCAA | -0.772 ± 0.16 | 0.622 ± 0.19 |
| UAGCAGCAAUAUUACGGGGG | -3.44 ± 0.29 | -2.98 ± 0.29 |
| UAGCAGCAAUAUUACGGGUG | -0.481 ± 0.058 | -0.431 ± 0.075 |

| Sequence | self-splicing fitness (ln) (30 °C) | self-splicing fitness (ln) (37 °C) |
| --- | --- | --- |
| UAGCAGCAAUAUUACGGGUU | -3.82 ± 0.21 | -1.86 ± 0.16 |
| UAGCAGCAAUAUUACGGUAG | -1.07 ± 0.051 | -0.873 ± 0.067 |
| UAGCAGCAAUAUUACGGUGC | -2.2 ± 0.22 | -3.51 ± 0.42 |
| UAGCAGCAAUAUUACGGUUC | -3.12 ± 0.1 | -1.89 ± 0.091 |
| UAGCAGCAAUAUUACGUAGG | -1.62 ± 0.082 | -1.35 ± 0.1 |
| UAGCAGCAAUAUUACGUGGC | -4.18 ± 0.26 | -2.12 ± 0.21 |
| UAGCAGCAAUAUUACGUGUC | -3.39 ± 0.15 | -2.2 ± 0.12 |
| UAGCAGCAAUAUUACGUUCC | -3.78 ± 0.4 | 0.00366 ± 0.21 |
| UAGGAGCAAUAUUACGAAAC | -3.33 ± 0.42 | -2.28 ± 0.5 |
| UAGGAGCAAUAUUACGAAAG | – | -1.17 ± 0.23 |
| UAGGAGCAAUAUUACGAAAU | -2.12 ± 0.28 | -2.31 ± 0.42 |
| UAGGAGCAAUAUUACGAAUU | -2.72 ± 0.3 | -2.22 ± 0.48 |
| UAGGAGCAAUAUUACGAGGU | – | -2.42 ± 0.32 |
| UAGGAGCAAUAUUACGAUGA | -2.75 ± 0.26 | -1.53 ± 0.21 |
| UAGGAGCAAUAUUACGCAGC | – | -2.79 ± 0.36 |
| UAGGAGCAAUAUUACGCAUA | -2.01 ± 0.19 | -1.78 ± 0.17 |
| UAGGAGCAAUAUUACGCGAG | -2.32 ± 0.16 | -0.56 ± 0.13 |
| UAGGAGCAAUAUUACGCUCC | – | -2.28 ± 0.25 |
| UAGGAGCAAUAUUACGCUUC | -2.64 ± 0.35 | – |
| UAGGAGCAAUAUUACGGAUG | -3.62 ± 0.12 | -1.69 ± 0.11 |
| UAGGAGCAAUAUUACGGAUU | -3.92 ± 0.25 | -2.98 ± 0.38 |
| UAGGAGCAAUAUUACGGCAU | -4.07 ± 0.39 | -1.5 ± 0.25 |
| UAGGAGCAAUAUUACGGCUG | -0.891 ± 0.16 | 0.65 ± 0.2 |
| UAGGAGCAAUAUUACGUUCU | -3.31 ± 0.36 | -2.54 ± 0.27 |
| UAGUAGCAAUAUUACGAAAU | -2.89 ± 0.33 | – |
| UAGUAGCAAUAUUACGAGAG | -3.43 ± 0.24 | -2.67 ± 0.18 |
